Results as given in US20210277102A1, “COMPOSITIONS AND METHODS FOR TREATING A TUMOR SUPPRESSOR DEFICIENT CANCER” (BETH ISRAEL DEACONESS MEDICAL CENTER, INC., priority 2016, published 2021).

B1: CXCL5: recombinant mouse CXCL5 (BioLegend #573302) (protein, UniProt P50228 41-132, looked up)
C-X-C motif chemokine 5: APSSVIAATELRCVCLTVTPKINPKLIANLEVIPAGPQCPTVEVIAKLKNQKEVCLDPEAPVIKKIIQKILGSDKKKAKRNALAVERTASVQ
B2: CXCL17: recombinant mouse CXCL17 (BioLegend #585402); chemokine ligand of GPR35 (protein, UniProt Q5UW37 23-119, looked up)
C-X-C motif chemokine 17: SPNPGVARSHGDQHLAPRRWLLEGGQECECKDWFLQAPKRKATAVLGPPRKQCPCDHVKGREKKNRHQKHHRKSQRPSRACQQFLKRCHLASFALPL

Experiments:
mouse GPR35 = mouse GPR35 (Mus musculus, UniProt Q9ES90); conditions: in vitro; cited from earlier work
GPR35 [1] = molecular target: T1, GPR35 (Homo sapiens, UniProt Q9HC97); conditions: in vitro; cited from earlier work
Target sequence in this assay (Q9HC97 whole entry): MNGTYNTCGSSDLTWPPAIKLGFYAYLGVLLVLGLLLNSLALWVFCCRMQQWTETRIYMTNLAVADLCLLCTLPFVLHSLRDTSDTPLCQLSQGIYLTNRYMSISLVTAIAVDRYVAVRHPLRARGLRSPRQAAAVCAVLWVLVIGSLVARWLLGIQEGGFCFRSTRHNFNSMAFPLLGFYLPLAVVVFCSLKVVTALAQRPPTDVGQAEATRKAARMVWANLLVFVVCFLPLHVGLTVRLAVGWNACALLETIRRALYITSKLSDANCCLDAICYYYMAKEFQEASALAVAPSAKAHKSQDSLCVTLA

prostate cancer = conditions: phase III clinical trial in prostate cancer, unselected patients; cited from earlier work
[2] = system: whole bone marrow (BM) mouse cells and Gr1+ cells isolated from the BM; test: 4-day culture of bone marrow and Gr1+ cells in GM-CSF, IL-6 medium plus recombinant chemokine (flow analysis, qRT-PCR); format: cell-based; conditions: 4 days culture, GM-CSF and IL-6, recombinant chemokine 200 nM
Description: (§1) Gr1+ cells and monocytes were isolated from the bone marrow (tibias and femurs) of C57BL/6 wild type, 3 months old mice using the MACS Myltenyi Biotec Cell Isolation system according to the manufacturer's instruction. For monocytes isolation the Monocyte Isolation Kit (BM) (Miltenyi 130-100-629) was used, whereas Gr1 positive cells were isolated using the antibody Anti-Gr-1-Biotin, clone RB6-8C5 (Miltenyi 130-101-894). Red blood cells were lysed with the ACK lysis buffer (ThermoFisher Scientific A1049201). Total bone marrow cells and Gr1+ cells were cultured for 4 days. Briefly, 40 ng/ml GM-CSF (PeproTech #315-03) and 40 ng/ml IL-6 (PeproTech #216-16) were added to the control medium RPMI 1640 (ThermoFisher Scientific 11875-093), supplemented with penicillin-streptomycin, 10% FBS, 10 mM HEPES, 20 μM 2-Mercaptoethanol. Either recombinant mouse CXCL5 (BioLegend #573302) or recombinant mouse CXCL17 (BioLegend #585402) was added at the beginning of the experiment (200 nM). For the migration assay 2.5×10^5 MACS sorted cells were resuspended in 100 μL of either RPMI 1640 control medium or organoid complete medium and placed on the upper well of the transwell system (5 μm, Corning #160241). The migration assay with recombinant proteins was performed by adding to the bottom well 600 μL of RMPI1640 control medium supplemented with the indicated amount of either CXCL5 or CXCL17. The migration assay with organoid conditioned medium was performed by adding to the bottom well 600 μL of medium collected over 5 days of culture of prostate organoids with the indicated genotype. The migration of cells was quantified by flow cytometry, 15 seconds acquisition time, using BD LSR II flow cytometer.
For Flow Cytometry, spleen and lymph node single cell suspensions were prepared by mashing the tissue in 2% FBS/PBS. Tumor and control prostate tissue (from anterior lobes) single cell suspension was prepared by mincing the tumor and digestion with Collagenase Type I (Life Technologies #17018029) in 10% DMEM (GIBCO) for 1 hr at 37° C. Cell suspensions were passed through […] cell strainers to obtain single cell suspensions. Blood samples and single cell suspensions were re-suspended in 1-2 ml of ACK red cell lysis buffer (GIBCO) and lysed on ice for 1 minute. Cell suspensions were then washed in 2% FBS/PBS, centrifuged and re-suspended in 0.5-1 ml of 2% FBS/PBS. For flow cytometry, 100 μl of cell suspension was stained in a 96-well U-bottom plate and the following antibodies were used: CD45.2-Pacific Blue (BioLegend #109820), CD45.2-APC (eBioscience #17-0454-82), CD45.2-FITC (eBioscience #11-0454-85), Gr-1-FITC (eBioscience #11-5931), Gr-1-PE (eBioscience #12-5931-81), CD11b-PECy7 (eBioscience #25-0112), CD11b-FITC (eBioscience #11-0112-82), Ly6C-PE (eBioscience #12-5932-80), Ly6G-APC-Cy7 (BioLegend #127623), Ly6G-APC (BioLegend #127613), CD3-PE (eBioscience #12-0031), CD4-APC (BioLegend #100515), CD4-PE-Cy7 (eBioscience #25-0042-82), CD8-APC (BioLegend #100721), CD8-FITC (eBioscience #11-0081-85), B220-FITC (eBioscience #11-0452), CD19-PerCP-Cy5.5 (eBioscience #45-0193), F4/80-APC (eBioscience #17-4801), CD44-FITC (BD Pharmingen #561859), CD62L-APC (BioLegend #104411), CD206-PE (BioLegend #141705) and CD49f-APC (eBioscience #17-0495). All antibodies were used 1:100. To assess cell viability, cells were incubated with either DAPI or TO-PRO3 prior to FACS analysis. Foxp3 staining was done using FOXP3 Fix/Perm Buffer Set (BioLegend) and cells were stained by Foxp3-FITC antibody (eBioscience #11-5773). All staining mixtures were analyzed on a BD LSR II flow cytometer (Becton Dickinson). Resulting profiles were further processed and analyzed using the FlowJo 8.7 software.
Microarray analysis and gene set enrichment analysis on mouse tumor tissue were conducted and analyzed as previously described by Palucka, A. K. et al. (Palucka, A. K. et al. Cell 164, 1233-1247 (2016)). […]

[3] = system: Gr1+ cells isolated from the bone marrow of healthy mice; test: Transwell migration assay with recombinant proteins, Gr1+ cells; format: cell-based, mouse; conditions: Gr1+ cells mostly Ly6G+/Ly6C^int PMN cells; increasing concentration of recombinant protein
Description: as §1, with “The migration assay with recombinant proteins was performed by adding to the bottom well 600 μL of RMPI1640 control medium supplemented with the indicated amount of either CXCL5 or CXCL17. The migration assay with organoid conditioned medium was performed by adding to the bottom well 600 μL of medium collected over 5 days of culture of prostate organoids with the indicated genotype.” left out

GPR35 [4] = molecular target: T1, GPR35; conditions: cited from earlier work
Target sequence in this assay (Q9HC97 whole entry, species assumed): as the sequence (Q9HC97 whole entry) above

[5] = system: monocytes isolated from the bone marrow of healthy mice; test: Transwell migration assay with recombinant proteins, monocytes; format: cell-based, mouse; conditions: increasing concentration of recombinant protein in bottom well
Description: as §1, with “The migration assay with recombinant proteins was performed by adding to the bottom well 600 μL of RMPI1640 control medium supplemented with the indicated amount of either CXCL5 or CXCL17. The migration assay with organoid conditioned medium was performed by adding to the bottom well 600 μL of medium collected over 5 days of culture of prostate organoids with the indicated genotype.” left out

Sequence of mouse GPR35 (Q9ES90 whole entry): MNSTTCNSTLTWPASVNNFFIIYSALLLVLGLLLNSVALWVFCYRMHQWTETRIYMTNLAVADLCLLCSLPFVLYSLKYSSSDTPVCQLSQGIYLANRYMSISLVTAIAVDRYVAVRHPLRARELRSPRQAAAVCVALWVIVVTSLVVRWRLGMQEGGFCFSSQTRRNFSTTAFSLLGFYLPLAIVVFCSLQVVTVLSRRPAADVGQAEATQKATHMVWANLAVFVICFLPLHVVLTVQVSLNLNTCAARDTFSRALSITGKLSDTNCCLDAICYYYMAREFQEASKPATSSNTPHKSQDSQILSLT

| Molecule | antagonist activity at mouse GPR35 (mouse GPR35) | expression of the Ly6C and Ly6G markers (flow analysis) [2] | expression profile of the genes tested (qRT-PCR) [2] | migration of Gr1+ cells toward medium with recombinant protein [3] | further results |
| --- | --- | --- | --- | --- | --- |
| COC(=O)c1cnn(-c2ccc(F)cc2F)c1/C=N/NC(=S)NC(C)(C)C [CID2745687] | in vitro antagonist activity | – | – | – | antagonist activity at human GPR35 (GPR35 [1]): in vitro antagonist activity |
| CC(/C=C1\SC(=S)N(CCCC(=O)Nc2ccc(C(=O)O)c(O)c2)C1=O)=C\c1ccccc1 [ML145] | in vitro antagonist activity | – | – | – | – |
| COc1cccc2c1c(O)c(C(=O)N(C)c1ccc(C(F)(F)F)cc1)c(=O)n2C [Tasquinimod] | – | – | – | – | survival benefit (prostate cancer): failed to show a clear survival benefit |
| B1 | – | did not observe any significant difference | did not observe any significant difference | chemoattractants for PMN | expression of the Ly6C and Ly6G markers (flow analysis) ([2]; listed as recombinant CXCL5): did not show significant changes |
| B2 | – | did not observe any significant difference | did not observe any significant difference | only on monocytes | expression of the Ly6C and Ly6G markers (flow analysis) ([2]; listed as recombinant CXCL17): did not show significant changes; concentration range of GPR35-CXCL17 mediated functional responses (GPR35 [4]): ~50 nM; migration of monocytes toward medium with recombinant protein [5]: concentration-dependent effect |
